# Data as given in the nanobody polyreactivity screen of Harvey et al. (2022).
# Experiment: yeast display, Sf9 membrane polyspecificity reagent, FACS + sequencing; frameworks hold sequencing errors
# In short: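 Nanobodies came from a synthetic yeast display library in Saccharomyces cerevisiae BJ5465, induced with galactose for 36–48 hours and stained for 1 hour at 4 °C with 10% biotinylated, detergent-solubilized Sf9 membrane reagent. Cells were enriched on streptavidin microbeads and then FACS-sorted, with low and high (top ~1%) gates set on anti-HA fluorescence for expression and streptavidin fluorescence for reagent binding. Each polyreactivity label reflects the gate a clone came from. Genes were amplified by colony PCR, sequenced by MiSeq 2 × 250 and filtered by CDR length.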
row,Sequence,polyreactivity (PSR sort gate)
1,QVQLVESGGGLVQAGGSLRLSCAASGIFSRYAMGWYIQAPGKERELVAAISSGDSTNYADSVKGRFTISRDNAKNTVYLQMNSLKPEDTAVYYCATERSHLATGQGYYYVQTFYYWGQGTQVTVSS,low polyreactivity
2,QVQLVESGGGLVQAGGSLRLSCAASGRIFDDNAMGWYRQAPGKERELVASITVSTGSTYYADSVKGRFTISRDNAKNTVYLQMNSLKPEDTAVSYCAAPYITPYGTYVFSSDYWGQGTQVTVSS,low polyreactivity
3,QVQLVESGGVLVQAGGSLRLSCAASGNTFWLNAMGWYRQSPGKERELVDAITYTDGSTYADSVKGRFTISRDNAKNTVYLQMNSLKPEDTAVYYCAVANPSPYEWIAYYYWGQGTQVTVSS,low polyreactivity
4,QVQLVEAGGGLVQAGGSLRLSCAASGFILENYAMGWNRQAPGKERELVAAISGSGGTTYYADSVKGRFTISRDNAKNTVYLQMNSLKPEDTAVYYCNRDRLLRQYDYWGQGTQVTVSS,high polyreactivity
5,QVQLVESGGGLVQEGGSLRLSCAASGRNFDVYAMGWYRQAPGKERELVAAITWDGGSTYYADSVKGRFTISRDNAKNSVYLQMNSEKPEDKAVYYCAAEPVYTQRKGYDYWGQGTQVTVSS,low polyreactivity
6,QVQLLESGGGLVHAGGSLRLSCAASGSIFPYYAMGWYRQAPGKERELVAAISDSGDSTYYADSVKGRFTISRDNAKNTVYLQMNSLKPEDTAVYYCNADSRTDYHPHGTMVGPDREYWGQGTQVTVSS,low polyreactivity
7,QVQLVESGGCLVQAGGSLRLSCAASGRTFYRYAMGWSRQAPGKERELVATISSRGTSTYYADSVKGRFTISRDNAKNTVYLQMNSLKPEDTAVYYCAVRGYAAGRHGYAYWGQGTQVTVSS,high polyreactivity
8,QVQLVESGGGLVQAGGSLRLSCASSGSTWWYAMGWYRQAPGKEMELVATISYSGGSTYYADSVKGRFTISRDNAKNSVYLQMNSLKPEDTAVYYCAAKKWTAVRRDFWGQGTQVTVSS,high polyreactivity
9,QVQLVESGGGLVQAGGSLRLICAASGIIFVSNAMGWYRQAPGKERELVATINWSDDSTYYADSVKGRFTISRDNAKYTVYLQMNSLKPEDTAVYYCNARPLRYVESDYWGQGTQVTVSS,low polyreactivity
10,QVQLVESGGGLVQAGCSLRLSSAASGSIFDDNALGRYRPAPGTDRELVAAISDNDGSTYYADSVKGRFTISRDNAKTTVYVQMNSLKADETAVYYCAATAQEWYPAVYNQYYYWGQGTQVTVSS,low polyreactivity
11,QVQHVESGGGLVQAGGSLRLSCAASGYTFGGNAMGWYRQAPGKERELVAAISSGGSTNYADSVKGRFTISRDNAKNTVYLQMNSLKPEDTAVYYCNKRGYYYWSGQDVASYDYWGQGTQLTVSS,low polyreactivity
12,QVQLVESGGGLVQAGGSLRLSCAASGSTFRCYAMGGYRQATGKERELVAAIRSAGSTDYADSVKGRFTISRDNAKITVYLQMNILKQEDTAVYYCAAYFRYRSSRYGYWGQGTQVTVSS,high polyreactivity
13,QVQLVESGGGLVQAGGSRRLSCAAAGSTFGVIVMGWYREAPGKEREVVAAITKSGGSTYYADSVKGRFTISRDNAKNTVYLQMNSLKPEDTAVYFCIDAWGREYDYWGQGTQVHVSS,high polyreactivity
14,QVQLVESGGGLVQAGGSLRLSCAASGRTFSTYAMGWYRQAPGKERELVAAITTSGGNTYYADSVKGRFTISRDNAKNTVYLQMNSLKPEDTAVYYCNAKQQPYGGTDYDYWGQGTQVTVSS,low polyreactivity
15,QVQLVESGGGLVQAGGSLRLSCAASGSTFYQYAMGWYRQAPGKERELVAAITGSGTRTYYADSVKGRFTISRDNAKNTVYLQMNSLKPEDTAVYYCAAQKYYQGYNYWGQGTQVTVSS,high polyreactivity
16,QVQLVESGGGLVQAGGSLRLSCAASGSIFGPYVKGWYRQAPGTERELVASITSSGGSTYYADTVKGRFTISRDNAKNTVYIQMNSLKPEDTAVYYCNAVRFTPTNSHRYYWGQGTQVTVSS,high polyreactivity
17,QVQLVESGGGLVQAGGSLRLSCAASGYTILIYAKGWYRQAPGKERELVASISRSGGSTYYADSVKGRFTISRDNAKNTVYLQMNSLKTEDTAVYYCNADFGYDSVVEYDYWGQGTQVTVSS,low polyreactivity
18,QVQLVESGGGLVQAGGSLRLTCAASGSTFYYNAMGWYRQAPAKERELVADISWRGGITYYADSVKGRFTISRDNAKNTVYLQMNSLKPEDTAVYYFKADAESFDDGYWGQGTQVTVSS,low polyreactivity
19,QVQLEESGGGLVQAGGSLRLSCAASGSIFHYYTMGWYRQAPGKERELVAAITSSGGSTYYADSVKGRFTISRDNAKNTVYLQMNSLKPEDTAVYYCNKVRYRGYLYVPIYVGYNYWGQGTQVTVSS,high polyreactivity
20,QVQLVESGGGLVQAGGSLRLICAASGSIFAYNAMGWYRQAPGKERELVAAITDSAGSTYYADSVKGRFTISRDNAKNTVYLQMYSLKPEDTAVYYGAKYTTRGVYRYWPKDMDYWGQGTQVTVSS,low polyreactivity
21,QVQLVESGGGLVQAGGSLRLSCAASGRIFRGYAMGWYRQAPGKERELVAAISGRGGRTNYADSVKGRFTISRDNAKNTVYLQMNSLKPEDTAVYYCATVPYTASRYEYWGQGTQVTVSS,high polyreactivity
